# In patent publication KR20230086338A (dated 2023):
# T1: 재조합 인간 MUC1-C 항원 (MUC1-C ECD) (human, UniProt P15941 1098-1158)
# T1 construct: also called 재조합 MUC1-C 단백질; 재조합 hMUC1-항원
# T1 sequence: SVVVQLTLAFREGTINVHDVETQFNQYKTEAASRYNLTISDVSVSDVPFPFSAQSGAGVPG
# B1: KC-001 항체 (인간 MUC1-C 항체 KC-001) (antibody, V domains shown)
# VH: QVQLVESGGGLVQPGGSLRLSCAASGFTFSNYGMSWVRQAPGKGLEWVSSISNGGGSTSYADSVKGRFTISRDNSKNTLYLQMNSLRAEDTAVYYCAGWGIRGVTRPYYYYGMDVWGQGTTITVSS
# VL: DIVMTQTPLSLSVTPGQPASISCKSSQSLLHSDRKTYLYWYLQKPGQSPQLLIYEASNRFSGVPDRFSGGGSGTDFTLKISRVEADDVGIYYCMQGLHPIT
# notes: Human antibody from a naive scFv phage library; also called 항-MUC1 항체
# Target: T1, 재조합 인간 MUC1-C 항원 (MUC1-C ECD)
# Assay: BLI (Octet RED 96); MUC1-C antigen immobilised on AR2G sensor at 5 μg/mL, antibody 0.626-20 nM, 1:2 binding model
binder,measurement,value
B1,Kd,6.49 nM
